Data: patent publication US20130273020A1, “ANTIFUNGAL COMPOSITION” (COMVITA NEW ZEALAND LIMITED, priority 2010, published 2013)

Tests used:
Type in all cases: cell-based
Candida albicans [1] = experiment: Candida albicans growth by optical density, every 2 hrs up to 24 hrs (Example 1); details: single component alone, FIGS. 1 and 2
Description: In this example, a manuka honey was mixed with lactoferrin at varying concentrations and the degree of Candida albicans growth was measured and compared to each of the individual components alone. Samples of honey alone being a manuka honey with a UMF rating of ˜15 were collected. The honey was diluted with distilled water to honey concentrations of 12.5, 11.25, 10, 8.75, 7.5 and 0% (w/v). Samples of lactoferrin alone were also collected and similarly diluted with distilled water to concentrations of 5 mg/mL (5%), 4.5 mg/mL (4.5%), 4 mg/mL (4%), 3.5 mg/mL (3.5%), 3 mg/mL (3%) and 0% (w/v). Mixed samples were then produced using honey concentrations of 12.5, 11.25, 10, 8.75, 7.5 and 0% (w/v) along with lactoferrin at a concentration of 5 mg/mL of lactoferrin. Four replications were completed for each of the samples. Microbial growth for each of the samples was then measured every 2 hrs continuously for up to 24 hrs, determined by measuring the optical density of the mixture.

Candida albicans [2] = experiment: Candida albicans growth curves at 28° C. by absorbance (540 nm), percentage inhibition vs media alone (Examples 2 and 3); details: lactoferrin used in isolation, 0.2% and 0.6% w/v; FIG. 5
Description: A further experiment was completed measuring the growth curves of Candida albicans grown at 28° C. measured by absorbance (540 nm). […] Catalase was added to remove any confounding effects from hydrogen peroxide. As may be appreciated, the peroxide effect can vary between and within honeys giving rise to poor results that are difficult to interpret. Removal of the peroxide effect gives clearer result. It should be noted that a lower growth temperature than usual was used to prevent filamentous growth, which is an artifact of these Candida assays. The results found were clean easily measurable results and were verified under a microscope to be accurate. A further experiment was completed measuring the percentage inhibition expressed as a proportion of Candida albicans growth in media alone. […] Catalase was added to remove the peroxide effect noted above.

Candida albicans [3] = experiment: Candida albicans broth microtitre plate growth assay, absorbance at 650 nm, 28° C. (Example 4); details: honey alone (10% w/v, catalase) or lactoferrin alone (2.5-10 mg/ml); FIG. 6
Description: A further set of Candida albicans repeat trials were completed where the growth of Candida albicans cultures in broth was measured when subjected to a 10% w/v manuka honey with catalase and lactoferrin treatments ranging from 2.5-10 mg/ml. To prevent filamentous growth, the assay temperature was 28° C. as used previously. The assay was a broth microtitre plate set-up. Growth was measured by absorbance at 650 nm. Catalase was added to remove the peroxide effect noted above.

B1: lactoferrin (protein, UniProt P02788 20-710, looked up)
Lactotransferrin: GRRRSVQWCAVSQPEATKCFQWQRNMRKVRGPPVSCIKRDSPIQCIQAIAENRADAVTLDGGFIYEAGLAPYKLRPVAAEVYGTERQPRTHYYAVAVVKKGGSFQLNELQGLKSCHTGLRRTAGWNVPIGTLRPFLNWTGPPEPIEAAVARFFSASCVPGADKGQFPNLCRLCAGTGENKCAFSSQEPYFSYSGAFKCLRDGAGDVAFIRESTVFEDLSDEAERDEYELLCPDNTRKPVDKFKDCHLARVPSHAVVARSVNGKEDAIWNLLRQAQEKFGKDKSPKFQLFGSPSGQKDLLFKDSAIGFSRVPPRIDSGLYLGSGYFTAIQNLRKSEEEVAARRARVVWCAVGEQELRKCNQWSGLSEGSVTCSSASTTEDCIALVLKGEADAMSLDGGYVYTAGKCGLVPVLAENYKSQQSSDPDPNCVDRPVEGYLAVAVVRRSDTSLTWNSVKGKKSCHTAVDRTAGWNIPMGLLFNQTGSCKFDEYFSQSCAPGSDPRSNLCALCIGDEQGENKCVPNSNERYYGYTGAFRCLAENAGDVAFVKDVTVLQNTDGNNNEAWAKDLKLADFALLCLDGKRKPVTEARSCHLAMAPNHAVVSRMDKVERLKQVLLHQQAKFGRNGSDCPDKFCLFQSETKNLLFNDNTECLARLHGKTTYEKYLGPQYVAGITNLKKCSTSPLLEACEFLRK
notes: metal chelator that scavenges free transition metal ions, specifically iron
Candida albicans [1]; after 24 hours
  difference to controls without honey or lactoferrin after 24 hours: little difference
Candida albicans [1]; honey 7.5-12.5% (w/v) or lactoferrin 3-5 mg/mL
  degree of inhibition of microbial growth: relatively low
Candida albicans [2]
  percentage inhibition as a proportion of growth in media alone: negligible effects
Candida albicans [3]
  inhibition of growth: minimal inhibition
